In the supplement of paper PMC12338614:

B1: library; numbered along this chain (parent)
chain: MEVVDPQQLGMFTEGELMSVGMDTFIHRIDSTEVIYQPRRKRAKLIGKYLMGDLLGEGSYGKVKEVLDSETLCRRAVKILKKKKLRRIPNGEANVKKEIQLLRRLRHKNVIQLVDVLYNEEKQKMYMVMEYCVCGMQEMLDSVPEKRFPVCQAHGYFCQLIDGLEYLHSQGIVHKDIKPGNLLLTTGGTLKISDLGVAEALHPFAADDTCRTSQGSPAFQPPEIANGLDTFSGFKVDIWSAGVTLYNITTGLYPFEGDNIYKLFENIGKGSYAIPGDCGPPLSDLLKGMLEYEPAKRFSIRQIRQHSWFRKKHPPAEAPVPIPPSPDTKDRWRSMTVVPYLEDLHGADEDEDLFDIEDDIIYTQDFTVPGQVPEEEASHNGQRRGLPKAVCMNGTEAAQLSTKSRAEGRAPNPARKACSASSKIRRLSACKQQ

Variants of: B1
Assay: STK11 functional score (HeLa growth suppression), rescaled enrichment; synonymous median = 1, nonsense median = 0 (normalised score)
Conditions: with HeLa; variant type: missense
How it was run: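 Functional scores are post/pre-selection log ratios corrected to wild type, rescaled to synonymous and nonsense medians, merged over codons and replicate transfections, and given bootstrapped error. They come from POPCode libraries of codon-optimised STK11 integrated by Bxb1 at an AAVS1 landing pad in HeLa, three regions each transfected three times, with BFP-negative, mCherry-positive integrants sorted by FACS and tiled gDNA amplicons sequenced on NextSeq.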

STK11 functional score, by site and new letter:
D207: N 0.668
T212: D 1.48 | N 0.481 | R 1.48 | I 1.13 | A 1.41 | S 0.909 | H 1.59 | Q 1.65 | P 0.926 | L 1.06 | E 1.65 | Y 1.38 | M 0.927 | V 0.545 | W 1.41 | G 1.3 | C 1.32
I192: V 1.33 | W 0.0777 | M 1.25 | C 1.43 | T -0.0391 | Y 1.11 | F 1.13 | N 1.23
E199: H 1.39 | A 1.44 | Q 0.887 | G 1.07 | F 1.37 | C 1.38 | W 0.303 | P 0.87 | K 1.2 | S 1.21 | Y 1.04 | V 1.49 | R 1.67 | I 0.977 | N 1.54 | L 0.971
G188: C 0.212 | M -0.0265 | I 1.04 | R 1.19 | Y 1.6 | F 0.918 | P 1.36 | A 0.938 | L 0.732 | S 1.05 | W 0.946 | D 1.43 | V 0.388
T189: I 1.33 | V 1.3 | F 1.25 | W 1.2 | G 0.924 | L 1.24 | Y 0.71 | N 0.455 | P 1.12 | C 1.15 | R 1.41
D194: F -0.213 | G -0.36 | I -0.258 | H -0.252 | E -0.268 | Y -0.089 | S -0.236 | C -0.228 | L -0.0619 | R -0.0399 | P -0.348 | V -0.261
S193: Y -0.104 | T 1.22 | H 0.192 | C 0.963 | L 0.696 | N 1.61 | G 0.596 | I 1.17 | M 0.111 | F -0.0251 | R -0.142 | A 0.853 | W 0.0192 | K 0.0789 | E 1.54 | V 0.77
A205: D 1.33 | E 1.64 | V 1.09 | R 1.23 | C 1.25 | W 1.7 | Q 1.33 | F 1.35 | L 0.703 | P 0.302 | H 1.33 | S 1.18 | I 1.47 | G 0.712
A200: P 1.35 | V 0.901 | F 0.455 | I 1.31 | R 0.878 | M 1.65 | Y 1.29 | C 1.13 | H 1.49 | T 1.02 | G 0.439 | L 0.6 | W 0.861 | S 0.652 | D 0.859
L201: D 0.769 | W 0.55 | P 1.36 | S 0.759 | R 0.929 | N 1.19 | I 1.48 | M 0.914 | A 1.59 | H 1.16 | K 1.64 | F 0.797 | G 0.745 | E 0.334 | C 1.12 | V 0.808 | T 1.2
T209: A 1.2 | H 1.34 | R 1.27 | V 1.42 | F 0.568 | C 1.12 | E 1.17 | Q 1.5 | I 0.703 | P 1.27 | M 1.43 | L 1 | S 0.82 | G 1.36 | N 1.51 | W 1.28
F204: L 1.17 | H 1.67 | R 0.931 | A 1.03 | Y 0.593 | W 1.3 | C 0.849 | I 1.23 | V 1.24 | D 1.09 | G 1.3
